Patent US20230273213A1, “PEPTIDE DESIGN AND GALECTIN-3 INHIBITORS” (City of Hope, priority 2020, published 2023)
One block for each compound: values may come before it.

Assays:
GST-Galectin-3 = biological target: T1, GST-Galectin-3 (Homo sapiens, UniProt P17931); assay: Galectin-3 mediated agglutination assay on LAX56 pre-B ALL cells; format: cell-based
T1 construct: Full-length human GST-Galectin-3 (hereafter named GST-Gal3) in pGEX2T was previously described; made in house
Protocol: Cells, culture and agglutination assay. LAX56 human pre-B ALL cells were routinely co-cultured with mitomycin-C inactivated OP9 stromal cells. These previously described primary leukemia cell grew directly out from a relapse bone marrow sample (36, 37). For agglutination assays, cells were harvested, washed once in α-MEM medium, resuspended in 10 ml X-VIVO 15 medium (Lonza) and incubated at 37° C. for 24 h remove the Galectin-3 produced by OP9 stromal cells. For the assay, ALL cells were resuspended in X-VIVO 15 medium at a concentration of 1×10^6/ml and seeded at 2×10^5/200 μl cells into wells. […] Peptides, if included, were preincubated for 5 minutes with the recombinant proteins and added at different concentrations as indicated in the figures. TD139 was purchased from MedChemExpress and used at 100 μM. Phase contrast images were taken after 1-2 hours. Agglutination was defined as aggregates containing >10 cells per cluster. 2-13 images from different areas were taken and evaluated for cell clusters per condition. Biological data were graphed with GraphPad Prism software (version8.3.1). Values represent mean±SEM of the number of aggregates scored per independent image.
We used two approaches to test this experimentally. Mutation of critical residues in that pocket could abolish binding to the IDR and the agglutination activity of Galectin-3. Also, a peptide could potentially fit in the shallow pocket and inhibit the IDR interaction. A classical test for carbohydrate-binding activity of a lectin including Galectin-3 is an agglutination assay (36, 38, 42). In this assay, recombinant Galectin-3 is tested for its ability to promote lattice formation by binding in a multivalent manner to glycoproteins located on the cell surface: when cell surface glycoprotein targets are located on different cells, carbohydrate binding combined with multimer formation causes cellular agglutination. […] Thus we used an agglutination assay in which recombinant Galectin-3 is added to patient-derived precursor B-acute lymphoblastic leukemia cells (pre-B ALL) as a readout for Galectin-3 lattice-forming activity.

GST-Gal3 L203A = biological target: T2, GST-Gal3 L203A (Homo sapiens, UniProt P17931, L203A); assay: agglutination assay with GST-Gal3 L203A mutant; format: cell-based; conditions: LAX56 cells
T2 construct: Full-length human GST-Galectin-3 (hereafter named GST-Gal3) in pGEX2T was previously described; made in house; host or cells: E. coli BL21(DE3)
Protocol: (§1) Cells, culture and agglutination assay. LAX56 human pre-B ALL cells were routinely co-cultured with mitomycin-C inactivated OP9 stromal cells. These previously described primary leukemia cell grew directly out from a relapse bone marrow sample (36, 37). For agglutination assays, cells were harvested, washed once in α-MEM medium, resuspended in 10 ml X-VIVO 15 medium (Lonza) and incubated at 37° C. for 24 h remove the Galectin-3 produced by OP9 stromal cells. For the assay, ALL cells were resuspended in X-VIVO 15 medium at a concentration of 1×10^6/ml and seeded at 2×10^5/200 μl cells into wells. GST (12.5 μg/ml) or GST-Galectin-3 (25 μg/ml or 150 μg/ml, two different isolates) recombinant proteins were added in 300 μl X-VIVO 15 medium to duplicate wells. Peptides, if included, were preincubated for 5 minutes with the recombinant proteins and added at different concentrations as indicated in the figures. TD139 was purchased from MedChemExpress and used at 100 μM. Phase contrast images were taken after 1-2 hours. Agglutination was defined as aggregates containing >10 cells per cluster. 2-13 images from different areas were taken and evaluated for cell clusters per condition. Biological data were graphed with GraphPad Prism software (version8.3.1). Values represent mean±SEM of the number of aggregates scored per independent image.
(§2) GST-Galectin-3 and mutants. […]

Galectin-3 CTD = biological target: T3, Galectin-3 CTD (Homo sapiens, UniProt P17931); assay: 15N-1H HSQC NMR titration of Galectin-3 CTD with peptide-3; format: binding
T3 construct: We generated a Galectin-3 CTD construct including amino acids 117-250; GST (N, cleaved yes); made in house; host or cells: E. coli BL21(DE3), M9 medium with 15N ammonium chloride
Protocol: Galectin-3 CTD construct for NMR. The Galectin-3 C-terminal domain construct was generated using the same methods described above for the mutants. The protein includes Galectin-3 amino acids P117-1250 as well as residual attached glycine and serine residues after thrombin cleavage. Single colonies were grown overnight in LB+ amp, collected by centrifugation then inoculated in M9 media with ammonium-^15N chloride (Sigma) and grown for 3-4 hours. After induction of protein production with IPTG for an 3-4 additional hrs, cells were harvested and suspended in 1% NP40, PI, PMSF, 1 mM DTT, 50 mM Tris-HCl, pH 7.5. Cells were disrupted by sonication. GST-Galectin-3 was bound to glutathione-agarose (Genscript Cat #L00207) overnight at 4° C. Beads were washed 4× in lysis buffer, then suspended in 50 mM Tris-HCl pH 7.5, 0.1 mM DTT and treated with 60 u thrombin/ml (Fisher Cytiva Thrombin Protease) for 16 hrs at RT. The supernatant containing Galectin-3 protein was treated with benzamidine sepharose (Sigma, HiTrap Benzamidine FF) to bind and remove thrombin. Protein was concentrated using an Amicon 3K filter and used in 20 mM potassium phosphate buffer pH 6.8, 0.1 mM DTT for NMR. Protein concentrations were determined by BCA.
NMR. ^15N-^1H HSQC 700 MHz spectra were acquired with 20 μM Galectin-3 CTD [in 20 mM potassium phosphate buffer, pH 6.8, 0.1 mM DTT] and different molar ratios of added peptide-3 as indicated in FIG. 5. The chemical shift perturbation (CSP) 06 was calculated using the following equation: Δ\ delta=√{square root over ((ΔωN^2+ΔωH^2)/2)}. The ΔωN and ΔωH are the nitrogen and proton chemical shift difference between free ^15N-CTD and that in the mixture with P3 peptide. Assignments are based on the Galectin-3 CTD NMR data of Ippel (25) and Umemoto (39). […] Because L135 and W181 patterns differ between Ippel and Umemoto, their assignments could not be unambiguously determined. […]

GST-Gal3 L131A = biological target: T4, GST-Gal3 L131A (Homo sapiens, UniProt P17931, L131A); assay: agglutination assay with GST-Gal3 L131A mutant; format: cell-based; conditions: LAX56 cells
T4 construct: Full-length human GST-Galectin-3 (hereafter named GST-Gal3) in pGEX2T was previously described; made in house; host or cells: E. coli BL21(DE3)
Protocol: as §1, §2

[1] = GST-Gal3, 1-2 hours, peptide preincubated 5 minutes with protein

T1 sequence (P17931 2-250): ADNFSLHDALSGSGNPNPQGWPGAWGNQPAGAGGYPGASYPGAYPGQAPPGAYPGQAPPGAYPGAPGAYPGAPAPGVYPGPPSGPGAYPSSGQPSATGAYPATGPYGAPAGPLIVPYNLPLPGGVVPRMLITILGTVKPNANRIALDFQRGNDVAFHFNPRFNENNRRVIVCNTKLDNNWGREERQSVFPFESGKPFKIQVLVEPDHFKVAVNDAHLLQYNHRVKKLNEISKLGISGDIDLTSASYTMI
T3 sequence (P17931 117-250): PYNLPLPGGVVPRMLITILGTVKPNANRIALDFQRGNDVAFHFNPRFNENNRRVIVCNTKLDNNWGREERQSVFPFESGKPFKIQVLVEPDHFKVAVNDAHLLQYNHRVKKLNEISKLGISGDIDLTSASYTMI
T4 sequence (P17931 whole entry L131A): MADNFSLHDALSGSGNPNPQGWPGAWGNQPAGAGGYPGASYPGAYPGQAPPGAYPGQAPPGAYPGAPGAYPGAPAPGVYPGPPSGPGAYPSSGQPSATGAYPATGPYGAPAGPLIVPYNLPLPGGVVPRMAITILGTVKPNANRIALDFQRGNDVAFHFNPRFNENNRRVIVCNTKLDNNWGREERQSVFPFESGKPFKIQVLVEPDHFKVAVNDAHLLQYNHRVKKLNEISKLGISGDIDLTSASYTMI
T2 sequence (P17931 whole entry L203A): as the sequence (P17931 whole entry L131A) above, with A131L, L203A counted along it

effect on Galectin-3-mediated agglutination (GST-Galectin-3; [1]): had no effect on agglutination
Compound: N-terminal acetyl-ARAFGYPIYSY-C-terminal amide (Ac-ARAFGYPIYSY-NH2) [Peptide 2]

effect on Galectin-3-mediated agglutination (GST-Galectin-3; [1]): did not have an effect
Compound: PTHVTCKYCPAGNRDP [Peptide-5, scrambled negative control peptide described in the same study, reference compound]

effect on Galectin-3-mediated agglutination (GST-Galectin-3; GST-Gal3, 100 μM, positive control): clearly inhibited
Compound: OC[C@H]1O[C@@H](S[C@@H]2O[C@H](CO)[C@H](O)[C@H](n3cc(-c4cccc(F)c4)nn3)[C@H]2O)[C@H](O)[C@@H](n2cc(-c3cccc(F)c3)nn2)[C@H]1O [TD139, 3-deoxy-3-[4-(3-fluorophenyl)-1H-1,2,3-triazol-1-yl]-β-D-galactopyranosyl 3-deoxy-3-[4-(3-fluorophenyl)-1H-1,2,3-triazol-1-yl]-1-thio-β-D-galactopyranoside, reference compound]

inhibition of agglutination mediated by the L203A mutant (GST-Gal3 L203A): could still be inhibited
effect on Galectin-3-mediated agglutination (GST-Galectin-3; [1]): positive hit
effect on Galectin-3-mediated agglutination (GST-Galectin-3; GST-Gal3, 1-2 hours, peptide preincubated 5 minutes with protein, listed as P3): efficiently inhibits
effect on Galectin-3-mediated agglutination (GST-Galectin-3; GST-Gal3, 1-2 hours, peptide preincubated 5 minutes with protein, listed as peptide 3): inhibits agglutination
effect on Galectin-3-mediated agglutination (GST-Galectin-3; GST-Gal3, 1-2 hours, peptide preincubated 5 minutes with protein, listed as peptide-3): clearly was inhibitory
shift of S-face residues R186, K227 or Y221 upon exposure (Galectin-3 CTD; data not shown): no shift
chemical shift perturbation (CSP) of residue T248 (Galectin-3 CTD; one unit of RMSD): about 10.9 Hz
inhibition of agglutination mediated by the L131A mutant (GST-Gal3 L131A): largely insensitive to inhibition
Compound: ACE-YYPGAYPRRYR-NH2 (Ac-YYPGAYPRRYR-NH2) [Peptide 3]
effect on Galectin-3-mediated agglutination (GST-Galectin-3; GST-Gal3, 1-2 hours, peptide preincubated 5 minutes with protein, listed as YYPGAYPRRYR): inhibits Galectin-3 mediated agglutination
contacts with the CTD by NMR (Galectin-3 CTD; 20 μM 15N CTD, up to 100:1 peptide:CTD): makes extensive contacts with amino acids in the CTD

effect on Galectin-3-mediated agglutination (GST-Galectin-3; [1]): did not have an effect
Compound: ANTPCGPYTHDCPVKR [Peptide-4, reference compound]

Compound: ACE-ARAMGYPGASY-NH2 (Ac-ARAMGYPGASY-NH2) [Peptide 1]
effect on Galectin-3-mediated agglutination (GST-Galectin-3; [1]): had no effect on agglutination
